Laboratory results from patent US20210122788A1 (published 2021).
Read-outs that look alike come from different tables or passages of the source.

What was measured:
Assay in all cases: FACS binding to EL4 cells
[1] = target: T1, human BTLA, wild-type, on cells (human, UniProt Q7Z6A9 31-289)
human CD160 on cells [2] = target: T2, human CD160 on cells (human, UniProt O95971 25-159)
T2 chain: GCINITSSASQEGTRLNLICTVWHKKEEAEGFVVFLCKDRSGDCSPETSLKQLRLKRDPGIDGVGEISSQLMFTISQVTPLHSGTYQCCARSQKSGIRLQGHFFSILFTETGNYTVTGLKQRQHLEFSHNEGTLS

[3] = target: T1, human BTLA, wild-type, on cells; remark: listed apart in the source
human CD160 on cells [4] = target: T2, human CD160 on cells

B1: human HVEM Fc (Fc fusion)
chain: LPSCKEDEYPVGSECCPKCSPGYRVKEACGELTGTVCEPCPPGTYIAHLNGLSKCLQCQMCDPAMGLRASRNCSRTENAVCGCSPGHFCIVQDGDHCAACRAYATSSPGQRVQKGGTESQDTLCQNCPPGTFSPNGTLEECQHQTKCSWLVTKAGAGTSSSHWV
B1 was tested, and the EC50 [1] was 8.7 µg/mL, the EC50 (human CD160 on cells [2]) was 5.1 µg/mL and the EC50 [3] was 8.7 µg/mL. For the same binder, the EC50 (human CD160 on cells [4]) was 5.1 µg/mL.
